Source: publication PMC9482650, “Quantitative fragmentomics allow affinity mapping of interactomes” (Nature Communications, 2022)

T1: APBA2_2, Q99767
T1 sequence (Q99767 654-744, limits assumed, looked up): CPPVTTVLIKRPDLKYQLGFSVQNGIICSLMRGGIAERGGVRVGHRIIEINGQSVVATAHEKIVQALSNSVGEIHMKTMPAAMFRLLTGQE

T2: TJP3_3, O95049
T2 sequence (O95049 375-456, limits assumed, looked up): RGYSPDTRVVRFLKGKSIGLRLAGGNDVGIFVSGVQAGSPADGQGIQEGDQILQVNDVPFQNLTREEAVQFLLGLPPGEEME

T3: CARD11, Q9BXL7
T3 sequence (Q9BXL7 662-765, limits assumed, looked up): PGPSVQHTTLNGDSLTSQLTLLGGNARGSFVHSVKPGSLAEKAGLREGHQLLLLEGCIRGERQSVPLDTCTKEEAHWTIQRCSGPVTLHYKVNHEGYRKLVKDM

T4: ARHGAP21, Q5T5U3
T4 sequence (Q5T5U3 45-169, limits assumed, looked up): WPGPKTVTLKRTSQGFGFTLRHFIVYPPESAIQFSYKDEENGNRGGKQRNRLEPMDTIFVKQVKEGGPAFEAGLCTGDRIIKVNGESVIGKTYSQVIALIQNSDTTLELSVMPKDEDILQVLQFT

T5: DFNB31_3, Q9P202
T5 sequence (Q9P202 811-907, limits assumed, looked up): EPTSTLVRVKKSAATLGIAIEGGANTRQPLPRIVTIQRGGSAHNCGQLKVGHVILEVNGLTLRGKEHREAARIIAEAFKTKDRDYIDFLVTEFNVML

T6: DFNB31_1, Q9P202
T6 sequence (Q9P202 135-233, limits assumed, looked up): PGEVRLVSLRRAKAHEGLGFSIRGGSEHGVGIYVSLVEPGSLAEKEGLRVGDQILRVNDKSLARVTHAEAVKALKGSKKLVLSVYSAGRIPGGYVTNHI

T7: SNTG1, Q9NSN8
T7 sequence (Q9NSN8 52-150, limits assumed, looked up): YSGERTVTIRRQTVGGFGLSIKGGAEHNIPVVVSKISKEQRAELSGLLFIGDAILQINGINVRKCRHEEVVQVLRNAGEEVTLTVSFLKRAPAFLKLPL

T8: PARD3B_1, Q8TEW8
T8 sequence (Q8TEW8 196-299, limits assumed, looked up): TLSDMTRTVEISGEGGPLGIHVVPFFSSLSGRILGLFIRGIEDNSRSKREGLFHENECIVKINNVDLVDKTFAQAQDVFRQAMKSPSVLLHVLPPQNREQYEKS

T9: SNTA1, Q13424
T9 sequence (Q13424 82-180, limits assumed, looked up): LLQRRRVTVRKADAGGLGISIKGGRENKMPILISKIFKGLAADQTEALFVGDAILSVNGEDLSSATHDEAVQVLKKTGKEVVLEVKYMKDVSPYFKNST

T10: SIPA1L2, Q9P2F8
T10 sequence (Q9P2F8 945-1036, limits assumed, looked up): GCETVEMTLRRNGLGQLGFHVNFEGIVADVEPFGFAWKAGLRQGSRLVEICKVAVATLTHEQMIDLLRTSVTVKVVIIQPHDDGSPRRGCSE

T11: HTRA3, P83110
T11 sequence (P83110 354-453, limits assumed, looked up): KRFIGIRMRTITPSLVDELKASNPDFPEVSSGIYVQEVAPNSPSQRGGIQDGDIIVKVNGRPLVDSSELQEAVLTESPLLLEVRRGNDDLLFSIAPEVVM

T12: PDZD7_3, Q9H5P4
T12 sequence (Q9H5P4 857-944, limits assumed, looked up): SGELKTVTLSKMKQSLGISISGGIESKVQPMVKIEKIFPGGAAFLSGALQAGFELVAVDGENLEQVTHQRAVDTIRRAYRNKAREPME

T13: FRMPD1, Q5SYB0
T13 sequence (Q5SYB0 52-145, limits assumed, looked up): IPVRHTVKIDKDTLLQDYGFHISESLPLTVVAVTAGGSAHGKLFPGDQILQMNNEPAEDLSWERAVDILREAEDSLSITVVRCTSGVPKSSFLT

B1: GYPC, P04921 (peptide)
chain: GDSSRKEYFI
B2: CLDN8, P56748 (peptide)
chain: PSVYSRSQYV

These binders were tested against GRIP2_7, Q9C0E4 (assay: holdup assay). Settings: plain residues with an end cap or a label only (N-terminal biotin on a linker: ado-ado).
Chain of GRIP2_7, Q9C0E4 (Q9C0E4 934-1023): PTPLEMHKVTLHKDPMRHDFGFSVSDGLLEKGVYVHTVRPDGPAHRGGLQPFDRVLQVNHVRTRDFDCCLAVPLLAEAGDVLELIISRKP
Set-up: key: below the threshold = too weak to quantify, mostly under pKd 3.1 to 4

pKd	Binder
5.33	B1
3.51	B2

What follows are binders tested against T1, APBA2_2, Q99767 (assay: holdup assay). Settings: plain residues with an end cap or a label only (N-terminal biotin on a linker: ado-ado).
Set-up: key: below the threshold = too weak to quantify, mostly under pKd 3.1 to 4

pKd	Binder
below the threshold	B1
below the threshold	B2

What follows are binders tested against T2, TJP3_3, O95049 (assay: holdup assay). Settings: plain residues with an end cap or a label only (N-terminal biotin on a linker: ado-ado).
Set-up: key: below the threshold = too weak to quantify, mostly under pKd 3.1 to 4

pKd	Binder
3.69	B1
3.82	B2

The binders below were run against T3, CARD11, Q9BXL7 (assay: holdup assay). Settings: plain residues with an end cap or a label only (N-terminal biotin on a linker: ado-ado).
Set-up: key: below the threshold = too weak to quantify, mostly under pKd 3.1 to 4

pKd	Binder
below the threshold	B1
below the threshold	B2

The binders below were run against SCRIB_3, Q14160 (assay: holdup assay). Settings: plain residues with an end cap or a label only (N-terminal biotin on a linker: ado-ado).
Chain of SCRIB_3, Q14160 (Q14160 999-1103): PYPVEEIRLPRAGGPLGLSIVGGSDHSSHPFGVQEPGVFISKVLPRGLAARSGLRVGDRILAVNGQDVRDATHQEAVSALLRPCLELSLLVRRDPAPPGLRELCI
Set-up: key: below the threshold = too weak to quantify, mostly under pKd 3.1 to 4

pKd	Binder
4.13	B1
below the threshold	B2

The binders below were run against T4, ARHGAP21, Q5T5U3 (assay: holdup assay). Settings: plain residues with an end cap or a label only (N-terminal biotin on a linker: ado-ado).
Set-up: key: below the threshold = too weak to quantify, mostly under pKd 3.1 to 4

pKd	Binder
below the threshold	B1
4.12	B2

These binders were tested against T5, DFNB31_3, Q9P202 (assay: holdup assay). Settings: plain residues with an end cap or a label only (N-terminal biotin on a linker: ado-ado).
Set-up: key: below the threshold = too weak to quantify, mostly under pKd 3.1 to 4

pKd	Binder
3.81	B1
below the threshold	B2

These binders were tested against T6, DFNB31_1, Q9P202 (assay: holdup assay). Settings: plain residues with an end cap or a label only (N-terminal biotin on a linker: ado-ado).
Set-up: key: below the threshold = too weak to quantify, mostly under pKd 3.1 to 4

pKd	Binder
below the threshold	B1
below the threshold	B2

Each binder was assayed against LIMK2, P53671 (assay: holdup assay). Settings: plain residues with an end cap or a label only (N-terminal biotin on a linker: ado-ado).
Chain of LIMK2, P53671 (P53671 143-248): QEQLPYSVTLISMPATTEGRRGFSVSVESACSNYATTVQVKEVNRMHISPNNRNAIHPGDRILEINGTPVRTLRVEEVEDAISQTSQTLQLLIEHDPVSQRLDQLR
Set-up: key: below the threshold = too weak to quantify, mostly under pKd 3.1 to 4

pKd	Binder
below the threshold	B1
below the threshold	B2

Each binder was assayed against GORASP1, Q9BQQ3 (assay: holdup assay). Settings: plain residues with an end cap or a label only (N-terminal biotin on a linker: ado-ado).
Chain of GORASP1, Q9BQQ3 (Q9BQQ3 1-208): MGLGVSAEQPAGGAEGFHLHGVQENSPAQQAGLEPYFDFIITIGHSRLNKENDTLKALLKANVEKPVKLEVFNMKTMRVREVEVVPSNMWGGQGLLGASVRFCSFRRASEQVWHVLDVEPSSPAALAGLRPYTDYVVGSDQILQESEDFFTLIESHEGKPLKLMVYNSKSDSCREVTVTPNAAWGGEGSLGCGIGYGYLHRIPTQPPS
Set-up: key: below the threshold = too weak to quantify, mostly under pKd 3.1 to 4

pKd	Binder
4.33	B1
4.55	B2

Each binder was assayed against T7, SNTG1, Q9NSN8 (assay: holdup assay). Settings: plain residues with an end cap or a label only (N-terminal biotin on a linker: ado-ado).
Set-up: key: below the threshold = too weak to quantify, mostly under pKd 3.1 to 4

pKd	Binder
below the threshold	B1
below the threshold	B2

Each binder was assayed against SCRIB_1, Q14160 (assay: holdup assay). Settings: plain residues with an end cap or a label only (N-terminal biotin on a linker: ado-ado).
Chain of SCRIB_1, Q14160 (Q14160 718-814): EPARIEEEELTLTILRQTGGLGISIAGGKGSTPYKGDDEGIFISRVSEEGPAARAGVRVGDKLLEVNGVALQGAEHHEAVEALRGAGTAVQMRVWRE
Set-up: key: below the threshold = too weak to quantify, mostly under pKd 3.1 to 4

pKd	Binder
below the threshold	B1
below the threshold	B2

What follows are binders tested against PARD3_3, Q8TEW0 (assay: holdup assay). Settings: plain residues with an end cap or a label only (N-terminal biotin on a linker: ado-ado).
Chain of PARD3_3, Q8TEW0 (Q8TEW0 582-685): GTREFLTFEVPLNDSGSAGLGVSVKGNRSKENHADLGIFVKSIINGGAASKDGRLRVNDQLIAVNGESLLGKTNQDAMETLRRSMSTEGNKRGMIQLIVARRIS
Set-up: key: below the threshold = too weak to quantify, mostly under pKd 3.1 to 4

pKd	Binder
4.9	B1
below the threshold	B2

These binders were tested against TJP2_1, Q9UDY2 (assay: holdup assay). Settings: plain residues with an end cap or a label only (N-terminal biotin on a linker: ado-ado).
Chain of TJP2_1, Q9UDY2 (Q9UDY2 24-128): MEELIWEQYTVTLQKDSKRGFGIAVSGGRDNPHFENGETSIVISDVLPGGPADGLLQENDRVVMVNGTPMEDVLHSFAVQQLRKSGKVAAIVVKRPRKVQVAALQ
Set-up: key: below the threshold = too weak to quantify, mostly under pKd 3.1 to 4

pKd	Binder
below the threshold	B1
4.87	B2

Each binder was assayed against T8, PARD3B_1, Q8TEW8 (assay: holdup assay). Settings: plain residues with an end cap or a label only (N-terminal biotin on a linker: ado-ado).
Set-up: key: below the threshold = too weak to quantify, mostly under pKd 3.1 to 4

pKd	Binder
4.39	B1
3.58	B2

These binders were tested against MAGI1_2, Q96QZ7 (assay: holdup assay). Settings: plain residues with an end cap or a label only (N-terminal biotin on a linker: ado-ado).
Chain of MAGI1_2, Q96QZ7 (Q96QZ7 456-580): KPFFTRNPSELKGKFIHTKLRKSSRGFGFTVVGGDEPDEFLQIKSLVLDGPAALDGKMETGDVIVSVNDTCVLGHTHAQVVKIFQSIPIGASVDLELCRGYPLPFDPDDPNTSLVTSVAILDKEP
Set-up: key: below the threshold = too weak to quantify, mostly under pKd 3.1 to 4

pKd	Binder
below the threshold	B1
below the threshold	B2

These binders were tested against T9, SNTA1, Q13424 (assay: holdup assay). Settings: plain residues with an end cap or a label only (N-terminal biotin on a linker: ado-ado).
Set-up: key: below the threshold = too weak to quantify, mostly under pKd 3.1 to 4

pKd	Binder
below the threshold	B1
below the threshold	B2

The binders below were run against T10, SIPA1L2, Q9P2F8 (assay: holdup assay). Settings: plain residues with an end cap or a label only (N-terminal biotin on a linker: ado-ado).
Set-up: key: below the threshold = too weak to quantify, mostly under pKd 3.1 to 4

pKd	Binder
below the threshold	B1
below the threshold	B2

What follows are binders tested against T11, HTRA3, P83110 (assay: holdup assay). Settings: plain residues with an end cap or a label only (N-terminal biotin on a linker: ado-ado).
Set-up: key: below the threshold = too weak to quantify, mostly under pKd 3.1 to 4

pKd	Binder
4.64	B1
4.72	B2

The binders below were run against NHERF4_2, Q86UT5 (assay: holdup assay). Settings: plain residues with an end cap or a label only (N-terminal biotin on a linker: ado-ado).
Chain of NHERF4_2, Q86UT5 (Q86UT5 220-308): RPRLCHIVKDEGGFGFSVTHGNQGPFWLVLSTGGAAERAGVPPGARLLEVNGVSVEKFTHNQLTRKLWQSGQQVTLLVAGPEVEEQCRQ
Set-up: key: below the threshold = too weak to quantify, mostly under pKd 3.1 to 4

pKd	Binder
below the threshold	B1
below the threshold	B2

What follows are binders tested against TJP1_2, Q07157 (assay: holdup assay). Settings: plain residues with an end cap or a label only (N-terminal biotin on a linker: ado-ado).
Chain of TJP1_2, Q07157 (Q07157 181-274): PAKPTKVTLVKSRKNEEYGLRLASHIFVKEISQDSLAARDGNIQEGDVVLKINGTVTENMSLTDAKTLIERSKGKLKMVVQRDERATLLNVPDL
Set-up: key: below the threshold = too weak to quantify, mostly under pKd 3.1 to 4

pKd	Binder
below the threshold	B1
below the threshold	B2

These binders were tested against GRIP2_3, Q9C0E4 (assay: holdup assay). Settings: plain residues with an end cap or a label only (N-terminal biotin on a linker: ado-ado).
Chain of GRIP2_3, Q9C0E4 (Q9C0E4 238-339): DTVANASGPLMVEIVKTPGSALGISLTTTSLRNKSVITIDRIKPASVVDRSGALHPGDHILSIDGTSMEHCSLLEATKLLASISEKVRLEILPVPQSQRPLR
Set-up: key: below the threshold = too weak to quantify, mostly under pKd 3.1 to 4

pKd	Binder
below the threshold	B1
below the threshold	B2

The binders below were run against T12, PDZD7_3, Q9H5P4 (assay: holdup assay). Settings: plain residues with an end cap or a label only (N-terminal biotin on a linker: ado-ado).
Set-up: key: below the threshold = too weak to quantify, mostly under pKd 3.1 to 4

pKd	Binder
below the threshold	B1
below the threshold	B2

These binders were tested against T13, FRMPD1, Q5SYB0 (assay: holdup assay). Settings: plain residues with an end cap or a label only (N-terminal biotin on a linker: ado-ado).
Set-up: key: below the threshold = too weak to quantify, mostly under pKd 3.1 to 4

pKd	Binder
below the threshold	B1
below the threshold	B2
